Results as given in patent publication US20160137744A1 (ONCOMED PHARMACEUTICALS, published 2016).
Where two headings read alike, the source gives them in different places.

Key:
[1] = molecular target: full-length human MET (FL-MET) on cells (human) (UniProt P08581); test: FACS blocking assay: MET-transfected HEK-293T cells pre-incubated with the agent, then biotin-HGF (blocked ligand) + PE-streptavidin; inhibition versus the average of the two positive controls
[2] = molecular target: T1, human MET (soluble analyte in Biacore) (human, UniProt P08581 25-932); test: SPR (Biacore 2000), antibody captured by anti-human antibody, human MET injected
Description: (§1) The KD of monovalent version of 73R009, monovalent anti-MET antibody 5D5, and anti-MET/FZD8-Fc bispecific agent 315B6 were determined using a Biacore 2000 system from Biacore LifeSciences (GE Healthcare). A goat anti-human antibody (Invitrogen H10500) was coupled to a carboxymethyl-dextran (CM5) SPR chip using standard amine-based chemistry (NHS/EDC) and blocked with ethanolamine. Antibodies were diluted to a concentration of 10 μg/ml in HBS-P-BSA (0.01M HEPES pH7.4, 0.15M NaCl, 0.005% v/v Polysorbate 20, 10 μg/ml BSA) and captured onto the chip via the anti-human antibody. Human MET was serially diluted 2-fold from 300 nM to 37.5 nM in HBS-P-BSA and injected sequentially over the captured anti-MET antibodies. MET association and dissociation was measured at each concentration. After each antigen injection 5 μl of 100 mM H₃PO₄ was injected to remove the antigen-antibody complex and a subsequent injection performed. Kinetic data were collected over time and were fit using the simultaneous global fit equation to yield affinity constants (KD values) for each agent.
(§2) In addition, the bispecific agent 315B6 appeared to have stronger affinity for human MET than anti-MET antibody 5D5.

[3] = molecular target: full-length human MET (FL-MET) on cells (human) (UniProt P08581); test: FACS competition, biotin-HGF on MET-transfected HEK-293T cells; antibody at 10 µg/ml
[4] = molecular target: full-length human MET (FL-MET) on cells (human) (UniProt P08581); test: FACS competition, biotin-HGF on MET-transfected HEK-293T cells; antibody at 0.16 µg/ml
[5] = molecular target: full-length human MET (FL-MET) on cells (human) (UniProt P08581); test: FACS blocking assay: MET-transfected HEK-293T cells pre-incubated with the agent, then biotin-HGF (blocked ligand) + PE-streptavidin; % cells in gate P2
[6] = molecular target: full-length human MET (FL-MET) on cells (human) (UniProt P08581); test: FACS blocking assay: MET-transfected HEK-293T cells pre-incubated with the agent, then biotin-HGF (blocked ligand) + PE-streptavidin; inhibition versus the average of the two positive controls; remark: listed apart in the source
[7] = molecular target: full-length human MET (FL-MET) on cells (human) (UniProt P08581); test: FACS blocking assay: MET-transfected HEK-293T cells pre-incubated with the agent, then biotin-HGF (blocked ligand) + PE-streptavidin; % cells in gate P2; remark: listed apart in the source
[8] = molecular target: T1, human MET (soluble analyte in Biacore); test: SPR (Biacore 2000), agent captured by anti-human antibody, human MET injected
Description: as §1, §2

full-length human MET (FL-MET) on cells (human), sequence (P08581 25-1390 limits assumed): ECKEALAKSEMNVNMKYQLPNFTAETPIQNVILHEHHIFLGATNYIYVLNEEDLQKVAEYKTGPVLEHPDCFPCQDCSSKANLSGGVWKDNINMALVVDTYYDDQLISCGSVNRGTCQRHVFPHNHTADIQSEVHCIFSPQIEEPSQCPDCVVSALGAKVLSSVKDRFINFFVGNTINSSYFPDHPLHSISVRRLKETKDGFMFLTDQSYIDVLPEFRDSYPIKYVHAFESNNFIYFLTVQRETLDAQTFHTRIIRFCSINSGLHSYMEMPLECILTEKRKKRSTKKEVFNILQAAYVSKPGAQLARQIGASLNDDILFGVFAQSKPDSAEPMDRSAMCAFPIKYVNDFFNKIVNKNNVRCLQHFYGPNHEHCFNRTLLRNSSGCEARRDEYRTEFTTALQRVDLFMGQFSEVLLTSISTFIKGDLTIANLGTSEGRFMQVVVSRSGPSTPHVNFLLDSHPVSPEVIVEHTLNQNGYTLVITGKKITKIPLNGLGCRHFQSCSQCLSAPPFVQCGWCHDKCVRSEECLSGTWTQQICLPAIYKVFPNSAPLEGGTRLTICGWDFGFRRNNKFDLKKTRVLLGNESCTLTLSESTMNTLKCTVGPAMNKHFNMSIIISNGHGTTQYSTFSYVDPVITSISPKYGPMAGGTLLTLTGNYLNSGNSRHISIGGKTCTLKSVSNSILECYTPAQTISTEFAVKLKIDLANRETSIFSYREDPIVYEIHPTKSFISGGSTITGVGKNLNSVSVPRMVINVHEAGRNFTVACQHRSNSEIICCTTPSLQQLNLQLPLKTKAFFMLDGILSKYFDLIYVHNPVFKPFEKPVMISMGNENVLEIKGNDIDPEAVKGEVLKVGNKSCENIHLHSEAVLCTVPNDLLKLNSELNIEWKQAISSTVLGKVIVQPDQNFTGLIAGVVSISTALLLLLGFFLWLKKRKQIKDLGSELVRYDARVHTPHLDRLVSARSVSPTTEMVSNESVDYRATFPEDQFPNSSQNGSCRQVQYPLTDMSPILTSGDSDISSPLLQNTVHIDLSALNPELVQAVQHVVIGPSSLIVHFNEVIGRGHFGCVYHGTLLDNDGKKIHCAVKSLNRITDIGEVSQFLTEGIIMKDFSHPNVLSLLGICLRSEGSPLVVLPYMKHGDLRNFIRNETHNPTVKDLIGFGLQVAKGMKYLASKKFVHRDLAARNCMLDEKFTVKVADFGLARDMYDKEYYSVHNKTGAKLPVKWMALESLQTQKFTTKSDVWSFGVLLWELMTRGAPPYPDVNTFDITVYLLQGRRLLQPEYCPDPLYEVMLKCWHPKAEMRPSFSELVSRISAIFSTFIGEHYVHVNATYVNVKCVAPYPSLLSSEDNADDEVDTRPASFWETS
T1 sequence (P08581 25-932 limits assumed): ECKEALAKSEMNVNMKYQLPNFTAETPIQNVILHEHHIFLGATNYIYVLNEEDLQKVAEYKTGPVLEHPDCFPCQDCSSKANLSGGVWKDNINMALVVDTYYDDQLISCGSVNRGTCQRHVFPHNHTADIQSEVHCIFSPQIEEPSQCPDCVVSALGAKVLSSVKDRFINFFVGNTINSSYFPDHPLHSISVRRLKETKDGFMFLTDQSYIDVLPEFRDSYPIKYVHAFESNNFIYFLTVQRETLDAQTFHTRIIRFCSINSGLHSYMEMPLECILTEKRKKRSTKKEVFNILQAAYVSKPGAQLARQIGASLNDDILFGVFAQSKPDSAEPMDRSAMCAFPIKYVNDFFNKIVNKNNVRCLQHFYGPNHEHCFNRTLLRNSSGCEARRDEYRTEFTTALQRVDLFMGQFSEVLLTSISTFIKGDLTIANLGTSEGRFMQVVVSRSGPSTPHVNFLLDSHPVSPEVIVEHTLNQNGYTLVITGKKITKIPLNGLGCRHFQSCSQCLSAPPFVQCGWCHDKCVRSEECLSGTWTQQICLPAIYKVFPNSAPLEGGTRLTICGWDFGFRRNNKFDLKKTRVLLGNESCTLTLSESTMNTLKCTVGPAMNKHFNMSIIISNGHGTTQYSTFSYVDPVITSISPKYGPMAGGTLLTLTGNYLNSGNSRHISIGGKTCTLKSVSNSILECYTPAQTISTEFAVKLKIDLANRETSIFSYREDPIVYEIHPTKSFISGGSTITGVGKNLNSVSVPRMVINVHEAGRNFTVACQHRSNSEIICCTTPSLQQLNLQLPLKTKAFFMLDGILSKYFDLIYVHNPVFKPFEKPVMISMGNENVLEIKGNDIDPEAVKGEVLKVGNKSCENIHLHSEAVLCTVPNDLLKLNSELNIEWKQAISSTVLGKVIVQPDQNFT

monovalent anti-MET antibody 5D5 gave a % Inhibition of HGF binding at 0.3 ug/ml agent [1] of 47%, a % Inhibition of HGF binding at 0.625 ug/ml agent [1] of 40% and a % Inhibition of HGF binding at 1.25 ug/ml agent [1] of 57%. It also gave a % Inhibition of HGF binding at 2.5 ug/ml agent [1] of 52%, a % Inhibition of HGF binding at 5 ug/ml agent [1] of 67% and a Kd [2] of 7.2 nM. The percent reduction of HGF binding to MET [3] was 70%, the percent reduction of HGF binding to MET [4] was 28% and the % Binding of HGF at 0.16 ug/ml agent [5] was 14.3%. The % Binding of HGF at 0.3 ug/ml agent [5] was 10.6%, the % Binding of HGF at 0.625 ug/ml agent [5] was 12% and the % Binding of HGF at 1.25 ug/ml agent [5] was 8.54%. For the same molecule, the % Binding of HGF at 2.5 ug/ml agent [5] was 9.61%, the % Binding of HGF at 5 ug/ml agent [5] was 6.67% and the % Binding of HGF at 10 ug/ml agent [5] was 6.31%.

B1: monovalent version of anti-MET antibody 73R009 (antibody, part only; not given: monovalent constant regions and partner arm, V domains shown, not shown: another chain or arm of the molecule; a dimerising Fc or GST)
VH: QVQLQESGPGLVKPSETLSLTCTVTGTTITASYAWSWIRQPPGKGLEWMGYISYSGGTDYNPSLKSRITISRDTFKNQFSLKLSSVTAADTATYYCARKGAYWGQGTLVTVSS
VL: DIVLTQSPATLSASPGEKVTLTCSASSSVSSSYLYWYQQKPGQAPKLLIYSTSNLASGVPARFSGSGSGTSYSLTISSLEPEDFATYYCHQWSSYPYTFGGGTKLEIK
B1 was tested, and the Kd [2] was 1.4 nM, the % Inhibition of HGF binding at 0.3 ug/ml agent [6] was 52% and the % Inhibition of HGF binding at 0.625 ug/ml agent [6] was 60%. For the same molecule, the % Inhibition of HGF binding at 1.25 ug/ml agent [6] was 62%, the % Inhibition of HGF binding at 2.5 ug/ml agent [6] was 63% and the % Inhibition of HGF binding at 5 ug/ml agent [6] was 61%. For the same molecule, the % Binding of HGF at 0.16 ug/ml agent [7] was 8.72%, the % Binding of HGF at 0.3 ug/ml agent [7] was 9.71% and the % Binding of HGF at 0.625 ug/ml agent [7] was 8.03%. It also gave a % Binding of HGF at 1.25 ug/ml agent [7] of 7.7%, a % Binding of HGF at 2.5 ug/ml agent [7] of 7.44% and a % Binding of HGF at 5 ug/ml agent [7] of 7.77%. The % Binding of HGF at 10 ug/ml agent [7] was 5.51%, the percent reduction of HGF binding to MET [3] was 72% and the percent reduction of HGF binding to MET [4] was 56%.

B2: antibody 73R009 (bivalent "parental" antibody) (antibody, human IgG2, kappa, V domains shown)
VH: B1 VH
VL: DIVLTQSPATLSASPGEKVTLTCSASSSVSSSYLYWYQQKPGQAPKLLIYSTSNLASGVPARFSGSGSGTSYSLTISSLEPEDFATYYCHQWSSYPYTFGGGTKLEIKR
notes: Humanized, bivalent; also called humanized anti-MET monoclonal antibody
Work on B2 yielded a Kd [2] of 1.1 nM.

B3: anti-MET/FZD8-Fc bispecific agent 315B6 (bispecific antibody, human IgG2, kappa)
heavy: QVQLQESGPGLVKPSETLSLTCTVTGTTITASYAWSWIRQPPGKGLEWMGYISYSGGTDYNPSLKSRITISRDTFKNQFSLKLSSVTAADTATYYCARKGAYWGQGTLVTVSSASTKGPSVFPLAPCSRSTSESTAALGCLVKDYFPEPVTVSWNSGALTSGVHTFPAVLQSSGLYSLSSVVTVPSSNFGTQTYTCNVDHKPSNTKVDKTVERKCCVECPPCPAPPVAGPSVFLFPPKPKDTLMISRTPEVTCVVVDVSHEDPEVQFNWYVDGVEVHNAKTKPREEQFNSTFRVVSVLTVVHQDWLNGKEYKCKVSNKGLPAPIEKTISKTKGQPREPQVYTLPPSREKMTKNQVSLTCLVKGFYPSDIAVEWESNGQPENNYKTTPPMLKSDGSFFLYSKLTVDKSRWQQGNVFSCSVMHEALHNHYTQKSLSLSPGK
light: DIVLTQSPATLSASPGEKVTLTCSASSSVSSSYLYWYQQKPGQAPKLLIYSTSNLASGVPARFSGSGSGTSYSLTISSLEPEDFATYYCHQWSSYPYTFGGGTKLEIKRTVAAPSVFIFPPSDEQLKSGTASVVCLLNNFYPREAKVQWKVDNALQSGNSQESVTEQDSKDSTYSLSSTLTLSKADYEKHKVYACEVTHQGLSSPVTKSFNRGEC
chain: ASAKELACQEITVPLCKGIGYNYTYMPNQFNHDTQDEAGLEVHQFWPLVEIQCSPDLKFFLCSMYTPICLEDYKKPLPPCRSVCERAKAGCAPLMRQYGFAWPDRMRCDRLPEQGNPDTLCMDYNRTDLTTTKVDKTVERKSCVECPPCPAPPVAGPSVFLFPPKPKDTLMISRTPEVTCVVVDVSHEDPEVQFNWYVDGVEVHNAKTKPREEQFNSTFRVVSVLTVVHQDWLNGKEYKCKVSNKGLPAPIEKTISKTKGQPREPQVYTLPPSREEMTKNQVSLTCLVEGFYPSDIAVEWESNGQPENNYKTTPPMLDSDGSFFLYSELTVDKSRWQQGNVFSCSVMHEALHNHYTQKSLSLSPGK
notes: Heterodimer of a monovalent 73R009 arm (heavy + light) and a FZD8 Fri-Fc fusion arm; plasmids ATCC PTA-13609, PTA-13610, PTA-13611; also called bispecific anti-MET/FZD8-Fc agent
With B3 the Kd [8] was 1.8 nM.
